The experiment deals with tetramethylrhodamine isothiocyanate-labeled actin (UniProt P68139). Description: optical trap.
For “heterodimeric heavy meromyosin with one wild-type head and one E470A head (from UniProt P10587;P02607) (complex)”, the step duration (τon) was 106 ms.
Under “single-headed subfragment-1 with neonatal epitope tag at its COOH terminus (from UniProt P10587;P02607) (complex)” stands 189 ms.
Take “wild-type smooth muscle heavy meromyosin (from UniProt P10587;P02607) (complex)”: the step duration (τon) is 104 ms.

(Values after article PMC2172693.)
